{"source": "patent US20170267972A1", "about": "(published 2017)", "binders": {"B1": {"name": "TCR of clone LMP2#1 (TCR)", "alpha TRAV26-1*01 TRAJ34*01 CDR3": "CIVTRFYTDKLIF", "beta TRBV14*02 TRBJ2-1*01 CDR3": "CASSSPGSRPYNEQFF"}, "B2": {"name": "TCR of clone WT1#3-3 (TCR)", "alpha TRAV12-1*01 TRAJ9*01 CDR3": "CVVRGGGFKTIF", "beta TRBV20-1*01 TRBJ2-6*01 CDR3": "CSARAGTGGANVLTF"}}, "key": {"[1]": {"target": "T1, LMP2 (Epstein-Barr virus latent membrane protein 2) peptide on HLA-A*24:02 (human)", "T1 peptide": "IYVLVMLVL", "test": "multimer staining"}, "[2]": {"target": "T2, WT1 (modified form of the WT1 peptide) peptide on HLA-A*24:02 (human)", "T2 peptide": "CYTWNQMNL", "test": "killing"}}}
{"binder": "B1", "values": [{"measurement": "binding result", "setting": "[1]", "result": "recognises"}]}
{"binder": "B2", "values": [{"measurement": "binding result", "setting": "[2]", "result": "recognises"}]}
